Paper doi:10.1101/2021.10.03.462214 (bioRxiv, 2021)

Target: UBg_8UBgg (UniProt P0CG47, G76 deletion)
Assay: cryo-EM structure

binding result: binds
B1: Rpn10 (natural protein)
chain: MVLESTMVCVDNSEYMRNGDFLPTRLQAQQDAVNIVCHSKTRSNPENNVGLITLANDCEVLTTLTPDTGRILSKLHTVQPKGKITFCTGIRVAHLALKHRQGKNHKMRIIAFVGSPVEDNEKDLVKLAKRLKKEKVNVDIINFGEEEVNTEKLTAFVNTLNGKDGTGSHLVTVPPGPSLADALISSPILAGEGGAMLGLGASDFEFGVDPSADPELALALRVSMEEQRQRQEEEARRAAAASAAEAGIATTGTEDSDDALLKMTISQQEFGRTGLPDLSSMTEEEQIAYAMQMSLQGAEFGQAESADIDASSAMDTSEPAKEEDDYDVMQDPEFLQSVLENLPGVDPNNEAIRNAMGSLASQATKDGKKDKKEEDKK
